From article PMC10838266 (Nature Communications, 2024)

B1: Phosphoglycerate kinase 1, wild-type, His-tagged recombinant (enzyme, UniProt P00558 1-417, looked up)
chain: MSLSNKLTLDKLDVKGKRVVMRVDFNVPMKNNQITNNQRIKAAVPSIKFCLDNGAKSVVLMSHLGRPDGVPMPDKYSLEPVAVELKSLLGKDVLFLKDCVGPEVEKACANPAAGSVILLENLRFHVEEEGKGKDASGNKVKAEPAKIEAFRASLSKLGDVYVNDAFGTAHRAHSSMVGVNLPQKAGGFLMKKELNYFAKALESPERPFLAILGGAKVADKIQLINNMLDKVNEMIIGGGMAFTFLKVLNNMEIGTSLFDEEGAKIVKDLMSKAEKNGVKITLPVDFVTADKFDENAKTGQATVASGIPAGWMGLDCGPESSKKYAEAVTRAKQIVWNGPVGVFEWEAFARGTKALMDEVVKATSRGCITIIGGGDTATCCAKWNTEDKVSHVSTGGGASLELLEGKVLPGVDALSNI
notes: Phosphoglycerate kinase 1 (PGK1), wild-type, cloned into the BamHI and XhoI sites of pET32a; also called PGK1; His-tagged PGK1
B2: EGFR peptide, wild-type (contains the dileucine sorting signal) (peptide)
peptide: PNQALLRILKETE
notes: Stretch of the juxta-membrane region of the epidermal growth factor receptor (EGFR) with the dileucine sorting signal; also called peptide that contains the relevant dileucine motif; source: synthetic peptide (core facility)

How the values were obtained:
Hrs = Hrs (UniProt O14964); assay: co-immunoprecipitation from cell lysate; conditions: reference: wild type; sites S203
[1] = biological target: T1, GST fused to the cytoplasmic domain of the epidermal growth factor receptor (UniProt P00533 669-1210); assay: pull-down; GST-fusion proteins on glutathione beads incubated with soluble proteins (100 nM), 4 °C, 1 h, PBS with 0.05% Triton X-100 and protease inhibitors; two washes; SDS-PAGE with Coomassie staining or western blot; conditions: both partners purified
T1 construct: Epidermal growth factor receptor (EGFR), cytoplasmic domain appended to the carboxy terminus of GST in pGEX-4T-1; also called GST-EGFR cytoplasmic domain; source: E. coli BL21, purified on glutathione-Sepharose 4B beads; not shown: GST, N-terminal, kept

[2] = biological target: B1; assay: pull-down; competition with purified components: increasing level of an EGFR peptide (dileucine signal or mutated) added to the pull-down of PGK1 by GST-EGFR; conditions: both partners purified

Question: Which “binding against the reference” value (Hrs) does the source give for PGK1 (from UniProt P00558) S203A here?
Answer: weaker

Question: Does B1 bind [1]?
Answer: binds

Question: Does B2 bind [2]?
Answer: binds
